Assay results: article PMC7895427, “A stapled peptide mimetic of the CtIP tetramerization motif interferes with double-strand break repair and replication fork protection” (Science Advances, 2021)
Positions count from the first letter of the chain named. Names may count otherwise. Positions of bridges follow the written chain, without caps; N, C: chain ends. Non-standard residues stand in square brackets, D forms with d. *: point of attachment. FITC = O=C1OC2(c3ccc(O)cc3Oc3cc(O)ccc32)c2ccc(NC(=S)*)cc21; R8 = C=CCCCCCC[C@@](C)(N)C(=O)O; S5 = C=CCCC[C@](C)(N)C(=O)O

B1: CtIP-NTD^(18–145, L27E) (domain or fragment, human, UniProt Q99708 18-145, looked up)
chain: SDFKDLWTKEKECHDREVQGLQVKVTKLKQERILDAQRLEEFFTKNQQLREQQKVLHETIKVLEDRLRAGLCDRCAVTEEHMRKKQQEFENIRQQNLKLITELMNERNTLQEENKKLSEQLQQKIEND
notes: not shown: His6, N-terminal, cleaved; MBP, N-terminal, cleaved
B2: CtIP-NTD^18–145 (domain or fragment, human, UniProt Q99708 18-145, looked up)
chain: B1 chain with E10L
notes: as for B1
B3: full-length recombinant CtIP wild type (natural protein, human, UniProt Q99708 1-897, looked up)
chain: MNISGSSCGSPNSADTSSDFKDLWTKLKECHDREVQGLQVKVTKLKQERILDAQRLEEFFTKNQQLREQQKVLHETIKVLEDRLRAGLCDRCAVTEEHMRKKQQEFENIRQQNLKLITELMNERNTLQEENKKLSEQLQQKIENDQQHQAAELECEEDVIPDSPITAFSFSGVNRLRRKENPHVRYIEQTHTKLEHSVCANEMRKVSKSSTHPQHNPNENEILVADTYDQSQSPMAKAHGTSSYTPDKSSFNLATVVAETLGLGVQEESETQGPMSPLGDELYHCLEGNHKKQPFEESTRNTEDSLRFSDSTSKTPPQEELPTRVSSPVFGATSSIKSGLDLNTSLSPSLLQPGKKKHLKTLPFSNTCISRLEKTRSKSEDSALFTHHSLGSEVNKIIIQSSNKQILINKNISESLGEQNRTEYGKDSNTDKHLEPLKSLGGRTSKRKKTEEESEHEVSCPQASFDKENAFPFPMDNQFSMNGDCVMDKPLDLSDRFSAIQRQEKSQGSETSKNKFRQVTLYEALKTIPKGFSSSRKASDGNCTLPKDSPGEPCSQECIILQPLNKCSPDNKPSLQIKEENAVFKIPLRPRESLETENVLDDIKSAGSHEPIKIQTRSDHGGCELASVLQLNPCRTGKIKSLQNNQDVSFENIQWSIDPGADLSQYKMDVTVIDTKDGSQSKLGGETVDMDCTLVSETVLLKMKKQEQKGEKSSNEERKMNDSLEDMFDRTTHEEYESCLADSFSQAADEEEELSTATKKLHTHGDKQDKVKQKAFVEPYFKGDERETSLQNFPHIEVVRKKEERRKLLGHTCKECEIYYADMPAEEREKKLASCSRHRFRYIPPNTPENFWEVGFPSTQTCMERGYIKEDLDPCPRPKRRQPYNAIFSPKGKEQKT
notes: human CtIP, full length (amino acids 1 to 897); also called CtIP-wt
B4: full-length recombinant CtIP-L27E (natural protein, human, UniProt Q99708 1-897, looked up)
chain: B3 chain with L27E
notes: human CtIP, full length (amino acids 1 to 897), with L27E; L27E was introduced by site-directed mutagenesis of the 3xFLAG-CtIP-wt expression vector
B5: CtIP-NTD^32–145 (domain or fragment, human, UniProt Q99708 32-145, looked up)
chain: DREVQGLQVKVTKLKQERILDAQRLEEFFTKNQQLREQQKVLHETIKVLEDRLRAGLCDRCAVTEEHMRKKQQEFENIRQQNLKLITELMNERNTLQEENKKLSEQLQQKIEND
notes: also called N-terminal coiled-coil domain; not shown: His6, N-terminal, cleaved; MBP, N-terminal, cleaved

Tests used:
[1] = target: B2; test: fluorescence polarisation; FITC-labeled peptide (1 mg/ml stock diluted 1:10,000) mixed with serially diluted CtIP-NTD; 20 mM tris (pH 8.0), 150 mM NaCl; 10 min at RT; nonlinear regression with Hill slope; details: both partners purified
[2] = target: the molecule itself; test: cross-linking; 1 or 2 μg recombinant protein with or without peptide in PBS, 30 min at RT; 100 μM disuccinimidyl suberate, 30 min at RT; SDS-PAGE and staining
[3] = target: the molecule itself; test: cell-based or functional assay
[4] = target: the molecule itself; test: SEC-MALS; full-length CtIP 10 μM with 0, 20 or 250 μM peptide; 1 hour on ice, then 30 min at RT; Superose 6 10/300 in 20 mM tris (pH 8.0), 200 mM NaCl, 0.5 mM TCEP

## {FITC}-S[R8]FKDLWT[S5]LK-NH2 (staple 2-9) [FITC-labeled SP^18–28 (hydrocarbon-stapled peptide of CtIP residues 18 to 28)]
[1]
  Kd: 209 nM

## B1
[2]
  stoichiometry N: 2

## B2
[2]
  stoichiometry N: 4

## {FITC}-S[R8]FKDLWT[S5]LKECH-NH2 (staple 2-9) [FITC-labeled SP^18–31 (hydrocarbon-stapled peptide spanning the entire CtIP tetramerization motif)]
[1]
  fold higher Kd than that of SP^18–28 on the same target: ~100 fold

## B3
[3]
  HR frequency (percentage of GFP-positive U2OS EGFP-HR reporter cells after I-SceI) with 10 μM SP^18–28 for 24 hours: ~3 fold decrease
[4]
  stoichiometry N: 4

## B4
[4]
  stoichiometry N: 2

## B5
[2]
  stoichiometry N: 2
